The text below walks through data of patent US20220389088A1 (UNIVERSITY OF FLORIDA RESEARCH FOUNDATION, published 2022).

In assay [1] the target is T1, recombinant human cANGPTL4 (C-terminus fibrinogen-like signaling peptide of angiopoietin-like 4) (human, UniProt Q9BY76 166-406).
T1 construct: also called C-terminus of ANGPTL4
T1 sequence: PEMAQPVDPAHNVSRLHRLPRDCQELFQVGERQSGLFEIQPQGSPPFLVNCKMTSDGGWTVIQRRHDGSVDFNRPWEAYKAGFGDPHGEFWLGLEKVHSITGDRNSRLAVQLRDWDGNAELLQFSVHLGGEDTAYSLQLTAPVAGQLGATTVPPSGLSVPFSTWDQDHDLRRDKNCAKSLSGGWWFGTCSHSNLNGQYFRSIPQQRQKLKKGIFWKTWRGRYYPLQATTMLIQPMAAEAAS
In words: direct ELISA of hybridoma supernatants.

Assay [2] has as its target T1, recombinant human cANGPTL4 (C-terminus …). Briefly: SPR (Reichert 2SPR), purified recombinant human cANGPTL4. The procedure:
The kinetic binding parameters and affinity of the purified antibodies was determined by surface plasmon resonance (SPR) using Reichert 2SPR machine (Reichert Technologies) and purified recombinant human cANGPTL4 (Table 2).

Where a chain is given by its changes, count along the chain named.

B1: Ab-A, monoclonal rat-anti-human cANGPTL4 antibody (antibody, V domains shown)
VH: QVQLKESGPGLMQPSETLSLTCTVSGFSLTTNGVGWVRQPLGKGLVWMGTIWAGGSTNYNSAVQSRLSISRDTSKSQVFLKMNSLQPEDTGTYYCARQPFYYYDGIHYTRGYFDYWGQGVMVTVSS
VL: DVQMTQSPYNLAASPGESVSINCKASKSISKYLAWYQQKLGKANKLLIYDGSTLQSGIPSRFSGSGSGTDFTLTIRSLEPEDFGLYYCQQHNEYPATFGGGTKLELK
On to B1, for which, in assay [1], the binding result is recorded as “binds”.

B2: Ab-E, monoclonal rat-anti-human cANGPTL4 antibody (antibody, V domains shown)
VH: EVQLVESGGGLVQPGRSMKLSCAASGFTFSSFAMAWVRQAPTKGLEWVASISYDGGNTYYRDSVKGRFTISRDNAKSSLYLQMDSLRSEDTSTYYCASADLIWWYFDFWGPGTMVTVSS
VL: DIQMTQSPASLSASLEEIVTITCQASQDIGNWLAWYQQKPGKSPQLLIYGSTSLADGVPSRFSGSRSGTQYSLKISRLQVEDIGIYYCQQASSAPPTFGAGTKLELK
Regarding B2, in assay [2], the Kd came to 3.74 nM, the koff was found to be 8.07e-05 s⁻¹ and the on-rate (kon) stood at 21500 M⁻¹ s⁻¹.

B3: Ab-B, monoclonal rat-anti-human cANGPTL4 antibody (antibody, V domains shown)
VH: EVQLVESGGGLVQPGRSLKLSCAASGFTFSNYGMAWVRQTPTKGLEWVASISTGGSDTYYRDSVKGRFTISRDNAKNTQYLQMDSLRSEDTATYYCARQGFTEDTDYWGQGVMVTVSS
VL: DIQMTQSPSFLSASVGDRVTINCKASQNINKYLNWYQQKLGEAPKRLIYNTNNLQTGIPSRFSGSGSGTDYTLTISSLQPEDFATYFCLQHNSFPGTFGGGTKLELK
B3: in assay [2], the dissociation constant Kd was determined as 0.132 nM, the koff turned out to be 3.69e-05 s⁻¹ and the on-rate constant (kon) turned out to be 269000 M⁻¹ s⁻¹.

B4: Ab-C, monoclonal rat-anti-human cANGPTL4 antibody (antibody, V domains shown)
VH: EVQLVDSGGGLVQPGRSLKLSCAASGFTFSNYGMAWVRQIPTKGLEWVASISSGGGNTYYRDSVKGRFTISRDNAKNTQYLQMDSLRSEDTATYYCARDPGITGFDYWGQGVMVTVSS
VL: B3 VL with N53T, G100P, K103T
On to B4, for which, in assay [2], the Kd was found to be 0.199 nM, the off-rate constant (koff) was 1.35e-05 s⁻¹ and the kon came to 67800 M⁻¹ s⁻¹.

B5: Ab-D, monoclonal rat-anti-human cANGPTL4 antibody (antibody, V domains shown)
VH: B4 VH with D6E, I40T, S53T, P100S, G101T, I102V, T103D, G104Y
VL: B3 VL with N28K, Y71F, F87C
notes: also called Antibody Ab-D
As for B5, in assay [2], the dissociation constant (Kd) came to 0.48 nM, the off-rate (koff) came to 3.89e-05 s⁻¹ and the on-rate constant (kon) came out at 81100 M⁻¹ s⁻¹.

The term Kd denotes the free concentration of one partner at which half of the binding sites on the other are occupied at equilibrium, for simple one-to-one binding. Broadly, the koff is the first-order rate constant of dissociation. In general, kon refers to the second-order rate constant of association.
